System: MS2 coat protein
Test: apparent KD of MS2 coat protein; designed switch direction (-1 OFF switch, 1 ON switch): -1; higher = weaker reporter binding
Method in brief: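 Three titration conditions were used: no input, 200 uM small-molecule ligand, and an oligonucleotide input. In each, SNAP-549-labelled MS2 coat protein was raised from 0.7 or 1.5 nM, doubling, to 3 µM over designed RNA switches transcribed on Illumina chips by stalled E. coli RNA polymerase. Curve fits of normalised cluster fluorescence gave values whose per-design median over clusters is the apparent KD.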

[1] = input ligand: microRNA oligo, concentration not stated
[2] = Eterna round: R95, input ligand: microRNA oligo, concentration not stated
[3] = Eterna round: R95, input ligand: FMN 200 uM
[4] = Eterna round: R95, input ligand: none

Sequence	apparent KD of MS2 coat protein (input ligand: FMN 200 uM)	apparent KD of MS2 coat protein [1]	apparent KD of MS2 coat protein (input ligand: none)	apparent KD of MS2 coat protein [2]	apparent KD of MS2 coat protein [3]	apparent KD of MS2 coat protein [4]
UUCGUGCAGCUUUGCUGUACGCGUACAUGAGGAUCACCCAUGUAGGAUAUGGUAGGCUUUGCUUACUAGAAGGAUAGAGUGAUC [JL EXNG3 1.29] (Eterna round: R96, puzzle: Exclusion NG 3)	0.0807 µM	0.0678 µM	0.0957 µM	–	–	–
UAAGAUUACCGAGGAUAUGGUAGUACAUAUUAACCAGAAGGCGGACUCAACAUGAGGAUCACCCAUGUAUAAAGGGUAUUAGGU [JR_ExcNG1_Sub042] (Eterna round: R96, puzzle: Exclusion NG 1)	0.0847 µM	0.0603 µM	0.0603 µM	–	–	–
CAAUAACAAGCGAGAUCCUACAUGAGGAUCACCCAUGUGCUCGUCUUAAAAGGUACUGUGACGAAAGUCACGGUACC [Eli 87 + Mat D67 3] (Eterna round: R97, puzzle: Sensor, turn-off variant 1)	0.0169 µM	–	0.023 µM	–	–	–
CGAUGUUAUGUCAGGAUAUGCAUUGCGAAAGCGAUGCAGAAGGGACAUGAGGAUCACCCAUGUCCUAACCAUCG [Omei A 6] (puzzle: Brourd's mod of Exclusion 4)	–	–	–	0.0116 µM	–	–
ACAUGAGGAUCACCCAUGUUUGGCUGGUUUUCUCCGGCUGUCGAGGAUAUAGUCCGGUAUCCGCGCUAGAAGGUGAGGGUCGGC [Aenatbe mod 3] (Eterna round: R96, puzzle: Exclusion NG 3)	0.0121 µM	0.0176 µM	0.0216 µM	–	–	–
AGCCCUGCAGGAUAUGCCGAGGAUAACAUGAGGAUCACCCAUGUGACCGAUUGUUAGACUGCAGAAGGGCAUGGGA [salish99_ex5_r4_303] (Eterna round: R97, puzzle: Exclusion 5)	0.0817 µM	–	0.509 µM	–	–	–
CCUCGCAGGCAAGGAUAUCCUACAUUGUUCUGGCCCGGGCAUGCUACAUGAGGAUCACCCAUGUGGGAGAAGGUGCGCCACGGC [Design 31] (Eterna round: R96, puzzle: Exclusion NG 2)	0.0483 µM	0.0281 µM	0.0422 µM	–	–	–
AUAUAGAUGGUCAGGAUAUGCUAGUGAUAACAGUAGCAGAAGGGACAUGAGGAUCACCCAUGUGGAUAGCGCAC [Brourd's EX4 #6] (Eterna round: R97, puzzle: Brourd's mod of Exclusion 4)	0.123 µM	–	0.0371 µM	–	–	–
CAGUACUGAGGAUAUACAUGAGGAUCACCCAUGUCCUUCAGCUAGGAAACUAGCGAAAGUAGAAGGCAGUACUG [Eli x3 4.001] (Eterna round: R97, puzzle: Exclusion 3)	0.366 µM	–	0.0134 µM	–	–	–
CAGUACUGAGGAUAUACAUGAGGAUCACCCAUGUGUGUGAAAUUUAUGUGGUCGUAAUGUAGAAGGCAGUACUG [JR_Ex3_Sub028] (Eterna round: R97, puzzle: Exclusion 3)	0.0305 µM	–	0.0629 µM	–	–	–
UUGUGCACGCUGCGGUCCUACAUGAGGAUCACCCAUGUGGUCUGGUGGCGUGGGUCGCCGGACUUGGCUCGUCUUGA [salish99_S_TOV1_R5_027] (Eterna round: R97, puzzle: Sensor, turn-off variant 1)	0.0184 µM	–	0.0188 µM	–	–	–
AAUUUCAUUGUGAGGAUAUGCCCAAAUAAAAGCGGGCAGAAGGCACAUGAGGAUCACCCAUGUCCUGCGGUUAU [salish99_bmx4_r4_152] (Eterna round: R97, puzzle: Brourd's mod of Exclusion 4)	0.471 µM	–	0.0375 µM	–	–	–
CCUAUGUGAGGAUAUGUCUGGUCUUCUUUUGUUUUUUACAGACAGAAGGCACAUGAGGAUCACCCAUGUCAGAC [Ex4 - 3 - 47] (puzzle: Exclusion 4)	–	–	–	0.017 µM	–	–
AAAAGGCAGGGAGGAUAUGCUUACCUGGGUCGUCUUCAGACAUGAGGAUCACCCAUGUAGUCGACGCAGAAGGCCCUCAAAGCC [Mat - Exclusion NG 2 - Mod of JL - D60] (Eterna round: R96, puzzle: Exclusion NG 2)	0.0826 µM	0.0389 µM	0.0541 µM	–	–	–
AUUAAGCAGCAGGAUAUAAGUAUCUGAUGGUGGUUAGAAGGGCUGACAUGAGGAUCACCCAUGUGCUCUUCGUG [Tieruseres] (puzzle: Exclusion 6)	–	–	–	0.0101 µM	0.0161 µM	0.0141 µM
AUAUAGUCAGGAUAUCGAAGUGAGUGUUGGUUUGUAAGGUACGAGAAGGGACAUGAGGAUCACCCAUGUAGGAA [JR_Exclusion4)Sub003] (puzzle: Exclusion 4)	–	–	–	0.0427 µM	–	–
AUAAAAGUAGGAUAUUGACUGAUCGACAUGAGGAUCACCCAUGUGGUGCUGUGCGGUAUUCAAGAAGGGCUAAAAU [Ceisusma] (puzzle: Exclusion 5)	–	–	–	0.0204 µM	–	–
CCGGAUAUGCAGGAUAUCGUAACGGAAACGUUACGAGAAGGGUAUACAUGAGGAUCACCCAUGUGUCCUACCGG [Mat - Exclusion 6 - Eli Mod - D86] (puzzle: Exclusion 6)	–	–	–	0.0211 µM	–	–
AGAAGUAGUAACCGAUCCUACAUGAGGAUCACCCAUGUAGCGAGACGUGCACGCGAAGCUCGUCAGACUACCAGAUG [salish99_TOv1_r3_025] (puzzle: Sensor v3, turn-off variant 1)	–	–	–	0.139 µM	0.138 µM	0.159 µM
AAGAAACAUGAGGAUCACCCAUGUGAGGAUAUGAAUAAGAAAAGAAAAGAAAGAAGAAUCAGAAGGCACAAAGG [salish99-ex1_r3_045] (puzzle: Exclusion 1)	–	–	–	0.0405 µM	0.0495 µM	0.0372 µM
UUAGAAUUGUUAGGAUAUUAAUUAUUUUUUAGUAUGAUCUACAUGAGGAUCACCCAUGUUAAAUAUAAGAAGGAACGUUUUAUU [JR_ExcNG2_Sub097] (Eterna round: R96, puzzle: Exclusion NG 2)	–	0.0407 µM	–	–	–	–
ACAUGAGGGAAGGGAGGAGGGACAUGAGGAUCACCCAUGUCUCAGGAUAUAGAAGAAGAAAGAAACUAGAAGGGAGAGGAGGGU [Kawasakiqro] (Eterna round: R96, puzzle: Exclusion NG 3)	0.0297 µM	0.0166 µM	0.025 µM	–	–	–
UCUAGUUCAGGAUAUGUAGAUUUUAACAUGAGGAUCACCCAUGUAGAUCCUGAAUUAGCUACAGAAGGGAACAUUU [Mod of Brourd 2 - Jieux - Exclusion 5] (Eterna round: R97, puzzle: Exclusion 5)	0.0181 µM	–	0.0133 µM	–	–	–
GCAUUCUGAGGAUAUACAUGAGGAUCACCCAUGUUGAGAAAUAAGAAUAAGUACUUAAGUAGAAGGCAGAGUGC [JR_Ex3_Sub074] (Eterna round: R97, puzzle: Exclusion 3)	0.0616 µM	–	0.0158 µM	–	–	–
AUUUUAACAUAGGAUAUCGAAUUUAUCAUUUAACGAGAAGGAUGAACAUGAGGAUCACCCAUGUGGUAUCAUGG [JL-ex6-3.01] (puzzle: Exclusion 6)	–	–	–	0.265 µM	0.16 µM	0.105 µM
UCUCGUUGGCAAGGAUAUCCUACAUUGUUCUGGCCCGGGCAUGCUACAUGAGGAUCACCCAUGUGGGAGAAGGUGCGCCAUUGC [Design 24] (Eterna round: R96, puzzle: Exclusion NG 2)	0.0809 µM	0.0497 µM	0.0652 µM	–	–	–

Source: the supplement of paper PMC9170038
